Results: patent publication US20220056094A1 (JIANGSU HENGRUI MEDICINE, published 2022)
Where two headings read alike, the source gives them in different places. Values belong to the binder of their own block, whether it stands above or below them.

What was measured:
[1] = target: T1, high-affinity receptor IL-2Rα/β/γ on CTLL2 cells (mouse-derived cell line) (mouse, UniProt P01590 22-268; P16297 27-539; P34902 23-369); test: cell-based or functional assay
T1 sequence (looked up) 1: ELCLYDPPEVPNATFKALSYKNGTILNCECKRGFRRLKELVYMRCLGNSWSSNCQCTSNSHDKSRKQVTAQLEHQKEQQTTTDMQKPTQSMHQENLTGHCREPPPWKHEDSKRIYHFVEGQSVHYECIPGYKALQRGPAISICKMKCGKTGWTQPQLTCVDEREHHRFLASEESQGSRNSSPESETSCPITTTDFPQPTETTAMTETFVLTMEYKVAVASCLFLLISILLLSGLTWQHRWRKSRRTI
T1 sequence (looked up) 2: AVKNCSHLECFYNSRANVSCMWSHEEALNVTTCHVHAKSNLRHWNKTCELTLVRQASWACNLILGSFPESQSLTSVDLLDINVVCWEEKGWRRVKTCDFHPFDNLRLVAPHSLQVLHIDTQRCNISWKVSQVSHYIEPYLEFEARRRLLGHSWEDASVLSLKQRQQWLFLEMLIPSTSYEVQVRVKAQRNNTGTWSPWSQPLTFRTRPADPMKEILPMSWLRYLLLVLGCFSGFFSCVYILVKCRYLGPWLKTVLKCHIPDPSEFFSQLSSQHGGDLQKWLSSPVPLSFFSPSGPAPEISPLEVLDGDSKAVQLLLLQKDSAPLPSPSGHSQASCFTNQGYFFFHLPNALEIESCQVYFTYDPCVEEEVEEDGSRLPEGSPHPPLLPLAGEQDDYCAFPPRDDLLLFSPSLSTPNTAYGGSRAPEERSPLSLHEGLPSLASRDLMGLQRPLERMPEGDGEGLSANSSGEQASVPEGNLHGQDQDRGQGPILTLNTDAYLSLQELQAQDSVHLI
T1 sequence (looked up) 3: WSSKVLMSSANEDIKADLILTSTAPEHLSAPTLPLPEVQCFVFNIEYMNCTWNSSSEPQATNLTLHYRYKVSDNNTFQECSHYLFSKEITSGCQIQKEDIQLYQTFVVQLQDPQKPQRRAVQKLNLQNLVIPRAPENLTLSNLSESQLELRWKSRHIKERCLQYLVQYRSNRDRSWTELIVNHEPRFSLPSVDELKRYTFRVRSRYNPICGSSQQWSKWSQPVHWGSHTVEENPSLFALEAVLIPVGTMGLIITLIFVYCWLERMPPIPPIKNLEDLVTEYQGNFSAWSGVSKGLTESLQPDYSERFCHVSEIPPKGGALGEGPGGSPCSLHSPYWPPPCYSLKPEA

[2] = target: T1, high-affinity receptor IL-2Rα/β/γ on …; test: cell-based or functional assay; remark: listed apart in the source
[3] = target: T2, IL-2Rβ/γ-Fc heterodimer (IL-2Rβ-Fc-hole with IL-2Rγ-Fc-knob); test: SPR (Biacore), IL-2Rβ/γ-Fc captured on Protein A chip, 1:1 model
T2 construct: Co-expressed in HEK293 cells and purified with Protein A and Superdex 200
T2 sequence (chain, as listed by the source limits assumed, chain 1 of 2): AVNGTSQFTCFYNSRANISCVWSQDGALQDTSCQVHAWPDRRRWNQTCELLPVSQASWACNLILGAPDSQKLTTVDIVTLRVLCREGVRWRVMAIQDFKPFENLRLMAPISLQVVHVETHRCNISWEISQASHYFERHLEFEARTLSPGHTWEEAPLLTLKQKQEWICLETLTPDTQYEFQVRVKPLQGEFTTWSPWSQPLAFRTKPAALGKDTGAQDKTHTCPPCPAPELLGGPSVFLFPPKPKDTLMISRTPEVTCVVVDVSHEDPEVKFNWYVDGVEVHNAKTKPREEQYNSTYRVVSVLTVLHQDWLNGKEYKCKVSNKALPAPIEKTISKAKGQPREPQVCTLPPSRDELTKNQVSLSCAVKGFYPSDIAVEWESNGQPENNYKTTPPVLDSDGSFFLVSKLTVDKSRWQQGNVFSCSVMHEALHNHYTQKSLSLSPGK
T2 sequence (chain, as listed by the source limits assumed, chain 2 of 2): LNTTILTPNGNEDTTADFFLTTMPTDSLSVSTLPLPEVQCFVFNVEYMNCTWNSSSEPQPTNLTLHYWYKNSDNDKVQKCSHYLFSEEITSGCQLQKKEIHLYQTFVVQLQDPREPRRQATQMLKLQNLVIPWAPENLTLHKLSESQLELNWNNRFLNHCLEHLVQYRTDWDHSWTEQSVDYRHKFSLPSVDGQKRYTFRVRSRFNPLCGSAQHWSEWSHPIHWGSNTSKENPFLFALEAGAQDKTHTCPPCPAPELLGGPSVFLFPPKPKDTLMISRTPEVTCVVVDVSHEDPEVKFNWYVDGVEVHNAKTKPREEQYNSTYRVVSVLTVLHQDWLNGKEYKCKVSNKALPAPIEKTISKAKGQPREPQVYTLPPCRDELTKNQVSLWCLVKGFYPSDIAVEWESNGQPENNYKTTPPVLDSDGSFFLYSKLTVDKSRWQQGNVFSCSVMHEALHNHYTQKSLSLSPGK
Protocol: The Protein A sensor chip (GE, Cat #29127556) of the Biacore instrument (Biacore T200, GE) was used to capture IL-2Rβ/γ-Fc, wherein IL-2Rβ/γ-Fc was diluted with 1×HBS-EP to 1 μg/mL, and flowed at a flow rate of 10 μL/min for 30 seconds. […] The Biacore instrument (Biacore X100, GE) was used to detect the reaction in real time, to obtain association and dissociation curves. After each cycle of dissociation was completed, the chip was washed and regenerated with 10 mM Gly-HCl pH 1.5.

[4] = target: T3, his-tagged human IL-2Rα recombinant protein (SinoBiological, Cat #10165-H08H) (human, UniProt P01589 22-213); test: ELISA, his-tagged IL-2Rα coated, HRP anti-IL-2 polyclonal detection
T3 construct: Bought protein; also called IL-2Rα (His Tag)
T3 sequence: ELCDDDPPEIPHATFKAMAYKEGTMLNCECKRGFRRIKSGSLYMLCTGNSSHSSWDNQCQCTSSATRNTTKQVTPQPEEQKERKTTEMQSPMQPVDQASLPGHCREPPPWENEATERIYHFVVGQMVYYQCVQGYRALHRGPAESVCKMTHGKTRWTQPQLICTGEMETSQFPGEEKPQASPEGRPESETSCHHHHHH
Protocol: 96-well microtiter plate was coated with 2 μg/mL his-tagged IL-2Rα recombinant protein (SinoBiological, Cat #10165-H08H), and incubated overnight at 4° C. The plate was washed with washing solution for three times, 250 μl per well. For each time of washing, the plate was shaken for 10 seconds to ensure sufficient washing. 200 μl/well blocking solution was added and incubated at room temperature for 2 hours. The plate was washed with washing solution for three times, 250 μl per well. For each time of washing, the plate was shaken for 10 seconds to ensure sufficient washing. […] The plate was incubated for 1 hour at room temperature. The plate was washed with washing solution for three times, 250 μl per well. […] The plate was incubated for 1 hour at room temperature. The plate was washed with washing solution for three times, 250 μl per well. 100 μl TMB was added to each well, and the reaction was performed for 15 minutes in the dark. 50 μl of 0.16 M sulfuric acid was added to each well.

[5] = target: T1, high-affinity receptor IL-2Rα/β/γ on …; test: cell-based or functional assay; remark: listed apart in the source
[6] = target: T4, medium-affinity receptor IL-2Rβ/γ on human cells (Mo7e cell line; human CD8+T and NK cells) (human, UniProt P14784 27-551; P31785 23-369); test: cell-based or functional assay
T4 sequence (looked up) 1: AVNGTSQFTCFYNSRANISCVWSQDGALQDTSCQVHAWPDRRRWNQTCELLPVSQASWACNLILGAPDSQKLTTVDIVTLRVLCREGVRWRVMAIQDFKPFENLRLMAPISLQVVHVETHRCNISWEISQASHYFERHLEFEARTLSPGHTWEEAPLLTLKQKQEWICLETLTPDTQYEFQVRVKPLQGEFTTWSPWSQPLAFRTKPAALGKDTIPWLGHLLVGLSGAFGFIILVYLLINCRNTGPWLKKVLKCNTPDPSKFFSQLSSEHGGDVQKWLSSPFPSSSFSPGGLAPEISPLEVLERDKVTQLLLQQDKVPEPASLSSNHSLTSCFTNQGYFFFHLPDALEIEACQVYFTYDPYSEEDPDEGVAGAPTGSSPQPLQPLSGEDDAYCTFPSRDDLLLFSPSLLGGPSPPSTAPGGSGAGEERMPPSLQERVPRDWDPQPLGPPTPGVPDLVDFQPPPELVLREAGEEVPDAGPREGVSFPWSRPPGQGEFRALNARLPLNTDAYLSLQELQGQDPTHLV
T4 sequence (looked up) 2: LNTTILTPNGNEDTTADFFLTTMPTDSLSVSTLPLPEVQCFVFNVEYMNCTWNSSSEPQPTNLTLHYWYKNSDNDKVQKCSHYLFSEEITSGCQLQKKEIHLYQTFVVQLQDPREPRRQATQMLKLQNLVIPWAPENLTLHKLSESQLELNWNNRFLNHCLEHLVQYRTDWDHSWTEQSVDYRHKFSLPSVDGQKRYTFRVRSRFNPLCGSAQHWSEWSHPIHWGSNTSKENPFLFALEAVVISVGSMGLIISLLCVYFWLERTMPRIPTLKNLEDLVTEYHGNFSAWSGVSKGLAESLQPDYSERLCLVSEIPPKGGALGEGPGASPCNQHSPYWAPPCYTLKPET

B3: IL-2-04 (L70C/P82C) (ligand)
chain: MAPTSSSTKKTQLQLEHLLLDLQMILNGINNYKNPKLTRMLTFKFYMPKKATELKHLQCLEEELKPLEEVCNLAQSKNFHLRCRDLISNINVIVLELKGSETTFMCEYADETATIVEFLNRWITFAQSIISTLT
notes: The entry already carries the mutations and C125A and begins with M. Made in E. coli
relative biological activity (CTLL2 cell proliferation) [1]: 176%
Kd [3]: 0.302 nM
koff [3]: 0.00015 s⁻¹
kon [3]: 498000 M⁻¹ s⁻¹
EC50 [4]: 0.87 nM

B4: IL-2-10 (N26Q/N30S/F42A/L72G) (ligand)
chain: MAPTSSSTKKTQLQLEHLLLDLQMILQGINSYKNPKLTRMLTAKFYMPKKATELKHLQCLEEELKPLEEVLNGAQSKNFHLRPRDLISNINVIVLELKGSETTFMCEYADETATIVEFLNRWITFAQSIISTLT
notes: as for B3
EC50 (CTLL2 cell proliferation) [5]: 4.8 nM
relative biological activity (CTLL2 cell proliferation) [5]: 1%
EC50 (Mo7e cell proliferation) [6]: 1.78 nM
relative biological activity (Mo7e cell proliferation) [6]: 137%
Kd [3]: 0.266 nM
koff [3]: 0.00043 s⁻¹
kon [3]: 1.62e+06 M⁻¹ s⁻¹

B5: IL-2-06 (… at positions 29-44 mutated into QSMHIDATL) (ligand)
chain: MAPTSSSTKKTQLQLEHLLLDLQMILNGIQSMHIDATLYMPKKATELKHLQCLEEELKPLEEVLNLAQSKNFHLRPRDLISNINVIVLELKGSETTFMCEYADETATIVEFLNRWITFAQSIISTLT
notes: The entry already carries the replacement and C125A and begins with M. Made in E. coli
relative biological activity (CTLL2 cell proliferation) [1]: 4%
Kd [3]: 0.509 nM
koff [3]: 0.000436 s⁻¹
kon [3]: 856000 M⁻¹ s⁻¹

Continued by falling Kd [3], values first:

relative biological activity (CTLL2 cell proliferation) [1]: 4%
EC50 (STAT5 phosphorylation in CTLL2 cells) [2]: 2.45 nM
relative biological activity (STAT5 phosphorylation in CTLL2 cells) [2]: 0.41%
Kd [3]: 0.261 nM
koff [3]: 0.000215 s⁻¹
kon [3]: 822000 M⁻¹ s⁻¹
B2: IL-2-07 (F42A/Y45A) (ligand)
chain: MAPTSSSTKKTQLQLEHLLLDLQMILNGINNYKNPKLTRMLTAKFAMPKKATELKHLQCLEEELKPLEEVLNLAQSKNFHLRPRDLISNINVIVLELKGSETTFMCEYADETATIVEFLNRWITFAQSIISTLT
notes: as for B3

relative biological activity (CTLL2 cell proliferation) [1]: 7%
EC50 (STAT5 phosphorylation in CTLL2 cells) [2]: 3.93 nM
relative biological activity (STAT5 phosphorylation in CTLL2 cells) [2]: 0.25%
Kd [3]: 0.224 nM
koff [3]: 0.000206 s⁻¹
kon [3]: 920000 M⁻¹ s⁻¹
B1: IL-2-08 (F42A/L72G) (ligand)
chain: MAPTSSSTKKTQLQLEHLLLDLQMILNGINNYKNPKLTRMLTAKFYMPKKATELKHLQCLEEELKPLEEVLNGAQSKNFHLRPRDLISNINVIVLELKGSETTFMCEYADETATIVEFLNRWITFAQSIISTLT
notes: as for B3
